The values below come from US20250163140A1 (Kyowa Kirin, published 2025).

First the molecules themselves.
T1: Recombinant Human FGF-23 (R&D Systems, Cat No. 2604-FG-025/CF) (human, UniProt Q9GZV9 25-251)
T1 construct: Bought protein
T1 sequence (looked up): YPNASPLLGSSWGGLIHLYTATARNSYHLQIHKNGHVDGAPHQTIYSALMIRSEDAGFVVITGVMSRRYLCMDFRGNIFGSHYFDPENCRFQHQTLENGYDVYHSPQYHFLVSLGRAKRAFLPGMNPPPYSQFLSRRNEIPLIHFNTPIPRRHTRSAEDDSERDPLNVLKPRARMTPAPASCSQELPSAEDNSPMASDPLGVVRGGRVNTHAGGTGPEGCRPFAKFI

B1: antibody D105E (antibody, human IgG1, V domains shown)
VH: QVQLVQSGAEVKKPGASVKVSCKASGYTFTNHYMHWVRQAPGQGLEWMGIINPISGSTSNAQKFQGRVTMTRDTSTSTVYMELSSLRSEDTAVYYCARDIVDAFEFWGQGTMVTVSS
VL: AIQLTQSPSSLSASVGDRVTITCRASQGISSALVWYQQKPGKAPKLLIYDASSLESGVPSRFSGSGSGTDFTLTISSLQPEDFATYYCQQFNDYFTFGPGTKVDIK
notes: also called modified antibody D105
B2: antibody D105R (antibody, human IgG1, V domains shown)
VH: B1 VH with E105R
VL: B1 VL
notes: as for B1
B3: antibody D105W (antibody, human IgG1, V domains shown)
VH: B1 VH with E105W
VL: B1 VL
notes: as for B1
B4: antibody D105K (antibody, human IgG1, V domains shown)
VH: B1 VH with E105K
VL: B1 VL
notes: as for B1
B5: antibody D105Q (antibody, human IgG1, V domains shown)
VH: B1 VH with E105Q
VL: B1 VL
notes: as for B1
B6: antibody D105P (antibody, human IgG1, V domains shown)
VH: B1 VH with E105P
VL: B1 VL
notes: as for B1
B7: antibody D105M (antibody, human IgG1, V domains shown)
VH: B1 VH with E105M
VL: B1 VL
notes: as for B1
B8: antibody D105V (antibody, human IgG1, V domains shown)
VH: B1 VH with E105V
VL: B1 VL
notes: as for B1
B9: antibody D105F (antibody, human IgG1, V domains shown)
VH: B1 VH with E105F
VL: B1 VL
notes: as for B1
B10: antibody D105I (antibody, human IgG1, V domains shown)
VH: B1 VH with E105I
VL: B1 VL
notes: as for B1
B11: antibody D105N (antibody, human IgG1, V domains shown)
VH: B1 VH with E105N
VL: B1 VL
notes: as for B1
B12: antibody D105L (antibody, human IgG1, V domains shown)
VH: B1 VH with E105L
VL: B1 VL
notes: as for B1
B13: antibody D105G (antibody, human IgG1, V domains shown)
VH: B1 VH with E105G
VL: B1 VL
notes: as for B1
B14: antibody D105S (antibody, human IgG1, V domains shown)
VH: B1 VH with E105S
VL: B1 VL
notes: as for B1
B15: antibody D105Y (antibody, human IgG1, V domains shown)
VH: B1 VH with E105Y
VL: B1 VL
notes: as for B1
B16: antibody D105H (antibody, human IgG1, V domains shown)
VH: B1 VH with E105H
VL: B1 VL
notes: as for B1
B17: antibody A_A (antibody, human IgG1, name in EU numbering)
heavy: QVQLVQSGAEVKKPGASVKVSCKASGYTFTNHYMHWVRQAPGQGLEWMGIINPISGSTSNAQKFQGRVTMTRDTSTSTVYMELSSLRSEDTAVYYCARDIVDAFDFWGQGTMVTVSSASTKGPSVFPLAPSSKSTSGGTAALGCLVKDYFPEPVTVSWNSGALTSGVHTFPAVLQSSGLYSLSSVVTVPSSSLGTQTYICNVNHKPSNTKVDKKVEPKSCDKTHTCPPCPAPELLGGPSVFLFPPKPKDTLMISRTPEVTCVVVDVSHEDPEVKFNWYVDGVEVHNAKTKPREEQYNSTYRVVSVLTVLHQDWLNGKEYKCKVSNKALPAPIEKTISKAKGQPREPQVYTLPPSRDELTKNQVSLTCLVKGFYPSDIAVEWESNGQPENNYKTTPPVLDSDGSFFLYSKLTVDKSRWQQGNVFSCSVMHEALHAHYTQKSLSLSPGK
light: B1 VL
notes: not shown: human kappa chain constant region; copies: 2 + 2
B18: antibody A_IgG4PE_R409K (antibody)
heavy: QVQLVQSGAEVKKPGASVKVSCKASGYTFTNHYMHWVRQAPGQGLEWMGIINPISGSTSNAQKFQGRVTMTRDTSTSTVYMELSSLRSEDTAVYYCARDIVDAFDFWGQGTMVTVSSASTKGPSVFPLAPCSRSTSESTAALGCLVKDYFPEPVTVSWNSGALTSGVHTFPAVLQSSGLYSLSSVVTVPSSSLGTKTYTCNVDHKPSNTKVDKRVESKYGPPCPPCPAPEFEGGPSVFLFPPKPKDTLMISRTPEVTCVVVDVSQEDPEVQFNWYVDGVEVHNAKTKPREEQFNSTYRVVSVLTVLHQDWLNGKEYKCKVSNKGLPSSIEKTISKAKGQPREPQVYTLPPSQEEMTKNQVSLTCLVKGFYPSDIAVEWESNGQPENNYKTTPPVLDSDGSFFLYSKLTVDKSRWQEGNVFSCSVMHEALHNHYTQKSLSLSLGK
VL: B1 VL
notes: copies: 2 + 2
B19: antibody A_G2 (antibody, human IgG2)
heavy: QVQLVQSGAEVKKPGASVKVSCKASGYTFTNHYMHWVRQAPGQGLEWMGIINPISGSTSNAQKFQGRVTMTRDTSTSTVYMELSSLRSEDTAVYYCARDIVDAFDFWGQGTMVTVSSASTKGPSVFPLAPCSRSTSESTAALGCLVKDYFPEPVTVSWNSGALTSGVHTFPAVLQSSGLYSLSSVVTVPSSNFGTQTYTCNVDHKPSNTKVDKTVERKCCVECPPCPAPPVAGPSVFLFPPKPKDTLMISRTPEVTCVVVDVSHEDPEVQFNWYVDGVEVHNAKTKPREEQFNSTFRVVSVLTVVHQDWLNGKEYKCKVSNKGLPAPIEKTISKTKGQPREPQVYTLPPSREEMTKNQVSLTCLVKGFYPSDIAVEWESNGQPENNYKTTPPMLDSDGSFFLYSKLTVDKSRWQQGNVFSCSVMHEALHNHYTQKSLSLSPGK
light: B1 VL
notes: domain: CH; CH of antibody A replaced by a CH of human IgG2; also called A2_G2; not shown: human kappa chain constant region; copies: 2 + 2
B20: antibody A_IgG4PE_R409K_P (antibody)
heavy: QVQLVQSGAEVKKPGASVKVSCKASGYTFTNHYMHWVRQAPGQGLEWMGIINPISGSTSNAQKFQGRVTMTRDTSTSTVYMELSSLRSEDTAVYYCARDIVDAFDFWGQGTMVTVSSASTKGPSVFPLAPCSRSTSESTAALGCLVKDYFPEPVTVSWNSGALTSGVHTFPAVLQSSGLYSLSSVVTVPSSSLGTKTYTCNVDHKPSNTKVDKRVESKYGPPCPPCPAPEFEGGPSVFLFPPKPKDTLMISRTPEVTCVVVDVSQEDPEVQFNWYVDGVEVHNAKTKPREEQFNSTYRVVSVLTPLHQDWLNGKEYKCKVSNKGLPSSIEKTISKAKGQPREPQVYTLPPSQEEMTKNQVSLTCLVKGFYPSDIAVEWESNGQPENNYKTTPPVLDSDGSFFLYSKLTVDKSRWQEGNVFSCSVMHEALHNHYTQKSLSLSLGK
light: B1 VL
notes: as for B17
B21: antibody A_P (antibody, human IgG1, name in EU numbering)
heavy: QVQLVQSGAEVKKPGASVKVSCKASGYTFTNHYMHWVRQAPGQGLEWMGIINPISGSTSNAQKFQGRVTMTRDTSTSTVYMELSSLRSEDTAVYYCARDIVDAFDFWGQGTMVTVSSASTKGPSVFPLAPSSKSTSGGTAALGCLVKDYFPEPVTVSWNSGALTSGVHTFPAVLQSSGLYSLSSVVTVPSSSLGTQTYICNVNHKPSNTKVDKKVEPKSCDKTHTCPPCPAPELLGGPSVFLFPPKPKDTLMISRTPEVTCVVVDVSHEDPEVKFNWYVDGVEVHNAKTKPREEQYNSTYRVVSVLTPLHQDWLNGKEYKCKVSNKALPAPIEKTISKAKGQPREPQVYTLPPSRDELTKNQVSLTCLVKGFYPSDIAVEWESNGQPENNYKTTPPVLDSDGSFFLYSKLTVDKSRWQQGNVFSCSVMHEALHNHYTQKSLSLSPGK
light: B1 VL
notes: positions are EU index; not shown: human kappa chain constant region; copies: 2 + 2
B22: antibody A_G2_P (antibody, human IgG2, name in EU numbering)
heavy: B19 heavy with V304P, A374S
light: B1 VL
notes: domain: CH; Human IgG2 CH with modification (10-4), EU index; not shown: human kappa chain constant region; copies: 2 + 2
B23: antibody A_G2_YTE (antibody)
heavy: B19 heavy with M248Y, S250T, T252E
light: B1 VL
notes: as for B17
B24: antibody A_YTE (antibody, IgG1)
heavy: QVQLVQSGAEVKKPGASVKVSCKASGYTFTNHYMHWVRQAPGQGLEWMGIINPISGSTSNAQKFQGRVTMTRDTSTSTVYMELSSLRSEDTAVYYCARDIVDAFDFWGQGTMVTVSSASTKGPSVFPLAPSSKSTSGGTAALGCLVKDYFPEPVTVSWNSGALTSGVHTFPAVLQSSGLYSLSSVVTVPSSSLGTQTYICNVNHKPSNTKVDKKVEPKSCDKTHTCPPCPAPELLGGPSVFLFPPKPKDTLYITREPEVTCVVVDVSHEDPEVKFNWYVDGVEVHNAKTKPREEQYNSTYRVVSVLTVLHQDWLNGKEYKCKVSNKALPAPIEKTISKAKGQPREPQVYTLPPSRDELTKNQVSLTCLVKGFYPSDIAVEWESNGQPENNYKTTPPVLDSDGSFFLYSKLTVDKSRWQQGNVFSCSVMHEALHNHYTQKSLSLSPGK
light: B1 VL
notes: IgG1 CH with M252Y/S254T/T256E (EU index); not shown: human kappa chain constant region; copies: 2 + 2
B25: antibody A_G2_A (antibody, human IgG2, name in EU numbering)
heavy: B19 heavy with A374S, N430A
light: B1 VL
notes: domain: CH; Human IgG2 CH with modification (10-3), EU index; not shown: human kappa chain constant region; copies: 2 + 2
B26: antibody A_G2AAAS_A (antibody)
chain 1: B19 heavy with V231A, G233A, P327S, A374S, N430A
chain 2: not shown
B27: antibody A_G2AAAS_QL (antibody)
chain 1: B19 heavy with V231A, G233A, T246Q, P327S, A374S, M424L
chain 2: not shown

Positions count from the first letter of the chain named. Names may count otherwise. Bounds are passed on as bounds.

The first test concerns the target T1, Recombinant Human FGF-23 (R&D Systems, …). The test can be described thus: SPR, antibody captured by anti-human IgG, FGF-23 analyte. For orientation: Surface plasmon resonance follows binding to a sensor surface in real time, without labels.
For the molecule B1, the Kd was determined as 0.017 nM.

On to B2, for which the equilibrium dissociation constant (Kd) turned out to be 1.91 nM.

B3: the Kd was 0.149 nM.

In the case of B4, the dissociation constant Kd came to 0.262 nM.

Consider B5, for which the Kd turned out to be 0.252 nM.

As to B6, the equilibrium dissociation constant (Kd) stood at 0.201 nM.

Take B7: the Kd came out at 0.671 nM.

For B8, the dissociation constant Kd came out at 0.263 nM.

Turning to B9, the equilibrium dissociation constant (Kd) was 0.178 nM.

As to B10, the Kd worked out at 0.0734 nM.

On to B11, for which the dissociation constant (Kd) is 0.046 nM.

Consider B12, for which the equilibrium dissociation constant (Kd) came to 0.0639 nM.

Consider B13, for which the dissociation constant Kd came out at 0.0975 nM.

With B14, the dissociation constant Kd was 0.106 nM.

Regarding B15, the dissociation constant (Kd) amounted to 0.102 nM.

As to B16, the dissociation constant (Kd) came to 0.143 nM.

The target in a further test is T2, monkey FcRn (monkey FcRn-His tag with monkey β2 microglobulin) (cynomolgus monkey, UniProt Q8SPV9 24-297; Q8SPW0 21-119).
T2 construct: also called cyno FcRn; cynomolgus monkey FcRn extracellular domain His-tag body
T2 sequence (Q8SPV9 other isoform, or with tags, fused parts or gaps limits assumed, chain 1 of 2): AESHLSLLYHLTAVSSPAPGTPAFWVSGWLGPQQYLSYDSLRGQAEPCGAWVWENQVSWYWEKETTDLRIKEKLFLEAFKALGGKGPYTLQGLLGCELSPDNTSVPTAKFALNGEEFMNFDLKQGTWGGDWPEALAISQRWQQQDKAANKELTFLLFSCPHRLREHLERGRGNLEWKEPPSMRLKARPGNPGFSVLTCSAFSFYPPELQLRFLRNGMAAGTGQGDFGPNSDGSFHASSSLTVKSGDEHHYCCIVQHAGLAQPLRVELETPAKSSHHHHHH
T2 sequence (Q8SPW0 21-119 limits assumed, chain 2 of 2): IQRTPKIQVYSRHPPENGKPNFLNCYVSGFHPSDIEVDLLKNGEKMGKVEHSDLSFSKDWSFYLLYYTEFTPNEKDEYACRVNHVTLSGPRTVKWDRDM
The test can be described thus: SPR pH 6, FcRn-His captured by anti-His, antibody analyte.
In turn, B17 yielded a Kd of 155 nM.

As for B18, the Kd was determined as 324 nM.

For B19, binding was characterised by a dissociation constant (Kd) of 233 nM.

B20 gave a Kd of 76.9 nM.

The molecule B21 registered a Kd of 60.2 nM.

On to B22, for which the dissociation constant (Kd) was determined as 78.2 nM.

As to B23, binding was characterised by a dissociation constant (Kd) of 39.1 nM.

For the molecule B24, the Kd is 115 nM.

Take B25: binding was put at a Kd of 133 nM.

Molecule B26 returned a Kd of 129 nM.

The molecule B27 gave a dissociation constant (Kd) of 69 nM.

The target of the next test is T3, human FcRn (human FcRn-His tag with human β2 microglobulin) (human, UniProt P55899 24-297; P61769 21-119).
T3 construct: also called h FcRn; hFcRn
T3 sequence (P55899 other isoform, or with tags, fused parts or gaps limits assumed, chain 1 of 2): as the sequence (Q8SPV9 other isoform, or with tags, fused parts or gaps limits assumed, chain 1 of 2) above, with D39N, Q44E, S99G, G189S, N190S, M217L, T269S counted along it
T3 sequence (P61769 21-119 limits assumed, chain 2 of 2): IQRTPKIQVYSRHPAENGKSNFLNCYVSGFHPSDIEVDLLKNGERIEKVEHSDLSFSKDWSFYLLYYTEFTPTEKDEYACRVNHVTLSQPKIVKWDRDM
The description is as above.
As for B17, the affinity, expressed as Kd, was 308 nM.

Molecule B18 gave a dissociation constant (Kd) of 912 nM.

In turn, B19 displayed a dissociation constant (Kd) of 624 nM.

Consider B20, for which the Kd was 192 nM.

Turning to B21, binding was characterised by a dissociation constant (Kd) of 183 nM.

Take B22: the Kd is 234 nM.

Molecule B23 came in with an equilibrium dissociation constant (Kd) of 186 nM.

As to B24, the dissociation constant (Kd) was 159 nM.

Molecule B25 displayed a Kd of 286 nM.

Consider B26, for which binding was characterised by a dissociation constant (Kd) of 247 nM.

In turn, B27 displayed a Kd of 213 nM.

Another test has as its target T1, Recombinant Human FGF-23 (R&D Systems, …). The test can be described thus: cell-based or functional assay.
On to B2, for which the “FGF23 neutralizing activity IC50 (luciferase promoter assay)” value (“FGF23 neutralizing activity IC50” below) is over 0.1 µg/mL.

B3: the “FGF23 neutralizing activity IC50” value came to 0.0779 µg/mL.

As to B4, the “FGF23 neutralizing activity IC50” value was determined as 0.0457 µg/mL.

Consider B5, for which the “FGF23 neutralizing activity IC50” value was over 0.1 µg/mL.

B6: the “FGF23 neutralizing activity IC50” value came to 0.0992 µg/mL.

As to B7, the “FGF23 neutralizing activity IC50” value was over 0.1 µg/mL.

Consider B8, for which the “FGF23 neutralizing activity IC50” value is over 0.1 µg/mL.

On to B9, for which the “FGF23 neutralizing activity IC50” value was over 0.1 µg/mL.

As for B10, the “FGF23 neutralizing activity IC50” value worked out at 0.0237 µg/mL.

Consider B11, for which the “FGF23 neutralizing activity IC50” value came to 0.014 µg/mL.

In the case of B12, the “FGF23 neutralizing activity IC50” value is 0.0256 µg/mL.

On to B13, for which the “FGF23 neutralizing activity IC50” value turned out to be 0.0331 µg/mL.

With B14, the “FGF23 neutralizing activity IC50” value was 0.0278 µg/mL.

Take B15: the “FGF23 neutralizing activity IC50” value turned out to be 0.0216 µg/mL.

Take B16: the “FGF23 neutralizing activity IC50” value came out at 0.0467 µg/mL.

In general, Kd refers to the concentration at which binding is half-saturated.
